We go through eight substances from IntAct's records for PubMed 15197186.

The target of test [1] is mob1a_human MOB1A (UniProt Q9H8S9).
For test [2] the target is unchanged. The source holds these as a separate data set.

Sequence of mob1a_human MOB1A (Q9H8S9 whole entry): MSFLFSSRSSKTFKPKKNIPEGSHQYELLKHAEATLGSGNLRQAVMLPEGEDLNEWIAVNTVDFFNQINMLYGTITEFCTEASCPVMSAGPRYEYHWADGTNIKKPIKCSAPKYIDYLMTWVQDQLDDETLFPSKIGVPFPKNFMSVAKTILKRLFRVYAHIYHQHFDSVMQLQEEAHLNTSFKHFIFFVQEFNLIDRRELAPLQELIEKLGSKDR
Sequence of Serine/threonine-protein kinase 38 (Homo sapiens), Q15208 R78A (Q15208 whole entry R78A): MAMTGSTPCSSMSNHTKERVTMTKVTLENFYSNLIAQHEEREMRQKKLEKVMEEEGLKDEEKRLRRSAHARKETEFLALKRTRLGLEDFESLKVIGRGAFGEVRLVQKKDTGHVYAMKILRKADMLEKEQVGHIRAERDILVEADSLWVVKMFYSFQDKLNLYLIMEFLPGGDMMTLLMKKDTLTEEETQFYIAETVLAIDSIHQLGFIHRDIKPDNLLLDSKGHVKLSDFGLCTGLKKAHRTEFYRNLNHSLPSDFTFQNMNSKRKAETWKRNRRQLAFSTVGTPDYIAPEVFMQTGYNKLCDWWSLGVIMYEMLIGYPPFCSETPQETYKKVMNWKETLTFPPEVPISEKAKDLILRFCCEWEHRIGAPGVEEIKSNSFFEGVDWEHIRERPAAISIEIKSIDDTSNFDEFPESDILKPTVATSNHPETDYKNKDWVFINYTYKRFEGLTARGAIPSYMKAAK
Sequence of Serine/threonine-protein kinase 38 (Homo sapiens), Q15208 Y31A (Q15208 whole entry Y31A): as the sequence (Q15208 whole entry R78A) above, with Y31A, A78R counted along it
Sequence of Serine/threonine-protein kinase 38 (Homo sapiens), Q15208 K24A (Q15208 whole entry K24A): as the sequence (Q15208 whole entry R78A) above, with K24A, A78R counted along it
Sequence of Serine/threonine-protein kinase 38 (Homo sapiens), Q15208 R44A (Q15208 whole entry R44A): as the sequence (Q15208 whole entry R78A) above, with R44A, A78R counted along it
Sequence of Serine/threonine-protein kinase 38 (Homo sapiens), Q15208 T74A (Q15208 whole entry T74A): as the sequence (Q15208 whole entry R78A) above, with T74A, A78R counted along it
Sequence of Serine/threonine-protein kinase 38-like (Homo sapiens), Q9Y2H1 Y32A (Q9Y2H1 whole entry Y32A): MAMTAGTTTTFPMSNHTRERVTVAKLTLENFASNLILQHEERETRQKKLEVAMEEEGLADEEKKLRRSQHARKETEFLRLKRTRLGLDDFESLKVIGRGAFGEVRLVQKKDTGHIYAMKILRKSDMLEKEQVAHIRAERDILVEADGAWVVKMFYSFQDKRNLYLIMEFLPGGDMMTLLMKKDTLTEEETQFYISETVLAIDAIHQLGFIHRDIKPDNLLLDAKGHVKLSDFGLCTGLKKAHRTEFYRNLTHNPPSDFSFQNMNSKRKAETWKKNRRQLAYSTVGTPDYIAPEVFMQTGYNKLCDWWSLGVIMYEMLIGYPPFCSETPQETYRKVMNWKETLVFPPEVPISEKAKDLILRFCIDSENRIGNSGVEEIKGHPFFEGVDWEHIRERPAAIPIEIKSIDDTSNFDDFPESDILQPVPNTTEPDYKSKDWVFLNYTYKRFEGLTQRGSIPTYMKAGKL
Sequence of Serine/threonine-protein kinase 38 (Homo sapiens), Q15208 R41A (Q15208 whole entry R41A): as the sequence (Q15208 whole entry R78A) above, with R41A, A78R counted along it
Sequence of Serine/threonine-protein kinase 38 (Homo sapiens), Q15208 L79A (Q15208 whole entry L79A): as the sequence (Q15208 whole entry R78A) above, with A78R, L79A counted along it

Turning to “Serine/threonine-protein kinase 38 (Homo sapiens), Q15208 K24A”, the “effect of a mutation on the interaction” value in test [1] is “decreasing interaction”.
Same read-out and setting: then “Serine/threonine-protein kinase 38 (Homo sapiens), Q15208 L79A”, with “decreasing interaction”.
Still for that read-out and setting: then “Serine/threonine-protein kinase 38 (Homo sapiens), Q15208 R41A”, with “disrupting interaction”; and “Serine/threonine-protein kinase 38 (Homo sapiens), Q15208 R44A”, with “decreasing interaction”.
With “Serine/threonine-protein kinase 38 (Homo sapiens), Q15208 R78A”, the “effect of a mutation on the interaction” value in test [1] is on record as “disrupting interaction”.
Regarding “Serine/threonine-protein kinase 38 (Homo sapiens), Q15208 T74A”, the “effect of a mutation on the interaction” value in test [1] is given as “disrupting interaction”.
Regarding “Serine/threonine-protein kinase 38 (Homo sapiens), Q15208 Y31A”, the “effect of a mutation on the interaction” value in test [1] is reported as “disrupting interaction”.
For the substance “Serine/threonine-protein kinase 38-like (Homo sapiens), Q9Y2H1 Y32A”, the “effect of a mutation on the interaction” value in test [2] is “disrupting interaction”.
